Reference: publication PMC4505335, “Selective targeting of PPARγ by the natural product chelerythrine with a unique binding mode and improved antidiabetic potency” (Scientific Reports, 2015)
Where no end group is shown, it is not given here. The star is where a group is joined. Biotin = O=C1N[C@H]2[C@H](CS[C@H]2CCCCC(=O)*)N1

T1: PPARγ (Homo sapiens, UniProt P37231)
T1 construct: gene PPARG; no SRC1 peptide; In-house His6-LBD 206-477 (E. coli) used for crystal and kinase assay
T1 sequence (P37231 234-505 limits assumed): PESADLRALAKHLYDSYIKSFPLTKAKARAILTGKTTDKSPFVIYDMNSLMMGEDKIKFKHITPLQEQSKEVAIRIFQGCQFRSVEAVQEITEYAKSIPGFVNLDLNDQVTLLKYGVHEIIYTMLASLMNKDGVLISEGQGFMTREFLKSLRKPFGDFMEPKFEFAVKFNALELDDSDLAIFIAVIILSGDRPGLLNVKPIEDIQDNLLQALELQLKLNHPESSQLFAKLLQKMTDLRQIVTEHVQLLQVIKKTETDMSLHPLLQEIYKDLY

T2: Human PPARγ LBD (residues 206–477) (human, UniProt P37231-2 206-477)
T2 construct: The tag is detected in the AlphaScreen (hexahistidine detection kit); also called NR1C3; source: E. coli BL21(DE3), purified (Ni HiTrap HP, SP-Sepharose); not shown: His6, N-terminal, kept
T2 sequence (looked up): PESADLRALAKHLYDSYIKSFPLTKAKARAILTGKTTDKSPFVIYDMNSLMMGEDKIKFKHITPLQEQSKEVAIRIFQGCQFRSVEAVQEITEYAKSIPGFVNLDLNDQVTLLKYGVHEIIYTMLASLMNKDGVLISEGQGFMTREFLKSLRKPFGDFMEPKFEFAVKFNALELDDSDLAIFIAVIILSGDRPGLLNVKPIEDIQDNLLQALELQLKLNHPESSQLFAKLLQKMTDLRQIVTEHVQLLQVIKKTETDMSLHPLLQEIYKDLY


Tests used:
PPARγ = molecular target: T1, PPARγ; assay: crystal structure at […] Å; Lantha TR-FRET competitive binding; AlphaScreen
[1] = molecular target: T2, Human PPARγ LBD (residues 206–477); assay: AlphaScreen or HTRF; hexahistidine detection kit; about 20–40 nmol/l His6-PPARγ LBD and 20 nmol/l biotinylated peptide, 5 μg/ml donor and acceptor beads; 50 mmol/l MOPS, 50 mmol/l NaF, 0.05 mmol/l CHAPS, 0.1 mg/ml BSA, pH 7.4; with rosiglitazone (1 μmol/l, and dose curves); settings: both partners purified
[2] = molecular target: T2, Human PPARγ LBD (residues 206–477); assay: AlphaScreen or HTRF; hexahistidine detection kit; about 20–40 nmol/l His6-PPARγ LBD and 20 nmol/l biotinylated peptide, 5 μg/ml donor and acceptor beads; 50 mmol/l MOPS, 50 mmol/l NaF, 0.05 mmol/l CHAPS, 0.1 mg/ml BSA, pH 7.4; with chelerythrine (5 μmol/l, and dose curves); settings: both partners purified

binding result [1]	Molecule	other results
	COc1ccc2c(c[n+](C)c3c4cc5c(cc4ccc23)OCO5)c1OC [CHE, chelerythrine]	IC50 (PPARγ): 566 nM
binds	Biotin-QEPVSPKKKENALLRYLLDKDDTKD [SRC2 coactivator peptide, N-terminally biotinylated]	
binds	Biotin-SPSSHSSLTERHKILHRLLQEGSP [SRC1 coactivator peptide, N-terminally biotinylated]	
	Biotin-GHSFADPASNLGLEDIIRKALMGSF (second corepressor motif peptide from NCoR (nuclear receptor corepressor 1; not the gene NCOR2/SMRT); also called NCoR-2 corepressor) [NCoR-2, a corepressor peptide from NCoR, N-terminally biotinylated]	binding result [2]: binds
